# Results published in patent publication US20110158985A1 (published 2011).
# Substitutions are numbered along the chain they refer to. Names may count otherwise. “And” between values parts separate entries of the source, which are not always exact repeats. Equal entries are not always repeated. Where two headings read alike, the source gives them in different places.
# T1: RSV F glycoprotein (NUF4) (respiratory syncytial virus)
# T1 chain 1: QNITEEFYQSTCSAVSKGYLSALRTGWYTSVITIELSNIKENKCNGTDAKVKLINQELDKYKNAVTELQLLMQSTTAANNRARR
# T1 chain 2: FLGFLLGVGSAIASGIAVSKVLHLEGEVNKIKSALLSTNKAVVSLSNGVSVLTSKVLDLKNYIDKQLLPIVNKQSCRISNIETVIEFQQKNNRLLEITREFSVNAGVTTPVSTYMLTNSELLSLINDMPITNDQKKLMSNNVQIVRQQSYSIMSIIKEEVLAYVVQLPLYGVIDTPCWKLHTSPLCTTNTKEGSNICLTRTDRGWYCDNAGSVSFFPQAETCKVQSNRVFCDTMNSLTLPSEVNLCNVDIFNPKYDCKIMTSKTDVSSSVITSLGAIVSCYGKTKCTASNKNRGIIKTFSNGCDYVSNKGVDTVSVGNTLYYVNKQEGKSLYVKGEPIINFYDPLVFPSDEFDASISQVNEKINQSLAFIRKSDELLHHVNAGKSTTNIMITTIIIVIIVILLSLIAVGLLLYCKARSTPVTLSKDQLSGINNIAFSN
# T2: murine FcRn (mouse, UniProt P01887 21-119)
# T2 construct: also called mouse FcRn; muFcRn
# T2 sequence: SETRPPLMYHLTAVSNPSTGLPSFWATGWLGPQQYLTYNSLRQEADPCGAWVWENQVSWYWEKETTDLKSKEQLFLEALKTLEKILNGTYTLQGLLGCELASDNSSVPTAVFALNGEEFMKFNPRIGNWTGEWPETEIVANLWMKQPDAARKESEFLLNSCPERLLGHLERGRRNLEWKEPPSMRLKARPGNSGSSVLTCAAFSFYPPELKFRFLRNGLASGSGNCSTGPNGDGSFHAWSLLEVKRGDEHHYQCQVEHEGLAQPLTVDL
# T2 sequence (b2m): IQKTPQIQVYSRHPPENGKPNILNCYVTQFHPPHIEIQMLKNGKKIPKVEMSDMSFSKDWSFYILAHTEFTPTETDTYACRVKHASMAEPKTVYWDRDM
# B1: P12f2 IgG (antibody, V domains shown)
# VH: QVTLRESGPALVKPTQTLTLTCTFSGFSLSTPGMSVGWIRQPPGKALEWLADIWWDDKKHYNPSLKDRLTISKDTSKNQVVLKVTNMDPADTATYYCARDMIFNFYFDVWGQGTTVTVSS
# VL: DIQMTQSPSTLSASVGDRVTITCSLSSRVGYMHWYQQKPGKAPKLLIYDTFYLSSGVPSRFSGSGSGTEFTLTISSLQPDDFATYYCFQGSGYPFTFGGGTKVEIKR
# B2: S32A Fab (Fab, name in Kabat numbering, V domains shown)
# VH: B1 VH with P32A, H60D, D67S, D100S, F103T, F105W
# VL: DIQMTQSPSTLSASVGDRVTITCSASSSVGYMHWYQQKPGKAPKLLIYDTSKLASGVPSRFSGSGSGTEFTLTISSLQPDDFATYYCFQGSGYPFTFGGGTKVEIK
# B3: AFFG Fab (Fab, name in Kabat numbering, V domains shown)
# VH: B1 VH with P32A, H60D, D67S, D100S, F103T
# VL: B2 VL with S51F
# B4: W100F Fab (Fab, name in Kabat numbering, V domains shown)
# VH: B1 VH with P32S, H60D, D67S, D100S, F103T
# VL: B2 VL
# B5: PFFF Fab (Fab, name in Kabat numbering, V domains shown)
# VH: B1 VH with H60D, D67S, D100S, F103T
# VL: B2 VL with S51F, G92F
# B6: AFFY Fab (Fab, name in Kabat numbering, V domains shown)
# VH: B1 VH with P32A, H60D, D67S, D100S, F103T
# VL: B2 VL with S51F, G92Y
# B7: G93F Fab (Fab, name in Kabat numbering, V domains shown)
# VH: B1 VH with P32S, H60D, D67S, D100S, F103T, F105W
# VL: B2 VL with G92F
# B8: P12f4 IgG (antibody, V domains shown)
# VH: B1 VH with D57G
# VL: B1 VL with F51R, Y52G, S54P
# B9: AFFF(1) Fab (Fab, V domains shown)
# VH: B1 VH with P32A, H60D, D67S, D100S, F103T
# VL: B2 VL with S51F, G92F
# notes: also called AHH(1)
# B10: AFSF Fab (Fab, name in Kabat numbering, V domains shown)
# VH: B1 VH with P32A, H60D, D67S, D100S, F103T
# VL: B2 VL with G92F
# B11: A17f5 Fab (Fab, V domains shown)
# VH: B1 VH with P32A, H60D, F105W
# VL: B2 VL with A25L, S28R, S51F, K52R, L53H, A54T
# B12: human IgG1 MEDI-493 (palivizumab) H433K/N434F/Y436H (antibody)
# heavy: QVTLRESGPALVKPTQTLTLTCTFSGFSLSTSGMSVGWIRQPPGKALEWLADIWWDDKKDYNPSLKSRLTISKDTSKNQVVLKVTNMDPADTATYYCARSMITNWYFDVWGAGTTVTVSSASTKGPSVFPLAPSSKSTSGGTAALGCLVKDYFPEPVTVSWNSGALTSGVHTFPAVLQSSGLYSLSSVVTVPSSSLGTQTYICNVNHKPSNTKVDKRVEPKSCDKTHTCPPCPAPELLGGPSVFLFPPKPKDTLMISRTPEVTCVVVDVSHEDPEVKFNWYVDGVEVHNAKTKPREEQYNSTYRVVSVLTVLHQDWLNGKEYKCKVSNKALPAPIEKTISKAKGQPREPQVYTLPPSREEMTKNQVSLTCLVKGFYPSDIAVEWESNGQPENNYKTTPPVLDSDGSFFLYSKLTVDKSRWQQGNVFSCSVMHEALKFHHTQKSLSLSPGK
# light: DIQMTQSPSTLSASVGDRVTITCKCQLSVGYMHWYQQKPGKAPKLLIYDTSKLASGVPSRFSGSGSGTEFTLTISSLQPDDFATYYCFQGSGYPFTFGGGTKLEIKRTVAAPSVFIFPPSDEQLKSGTASVVCLLNNFYPREAKVQWKVDNALQSGNSQESVTEQDSKDSTYSLSSTLTLSKADYEKHKVYACEVTHQGLSSPVTKSFNRGEC
# B13: human IgG1 MEDI-493 (palivizumab) N434F/Y436H (antibody)
# heavy: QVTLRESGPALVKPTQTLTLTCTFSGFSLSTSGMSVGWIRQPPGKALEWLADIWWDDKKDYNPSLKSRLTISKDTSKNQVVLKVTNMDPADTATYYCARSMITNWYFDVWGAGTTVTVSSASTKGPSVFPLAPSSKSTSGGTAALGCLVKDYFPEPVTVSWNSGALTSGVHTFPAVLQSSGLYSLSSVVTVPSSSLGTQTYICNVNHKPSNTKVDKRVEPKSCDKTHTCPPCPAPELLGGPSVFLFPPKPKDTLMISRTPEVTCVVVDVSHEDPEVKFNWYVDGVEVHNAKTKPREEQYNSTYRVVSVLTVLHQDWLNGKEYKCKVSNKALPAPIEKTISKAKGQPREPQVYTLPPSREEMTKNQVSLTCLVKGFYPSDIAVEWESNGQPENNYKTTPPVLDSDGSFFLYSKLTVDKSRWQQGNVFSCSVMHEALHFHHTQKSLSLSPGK
# light: B12 light
# B14: human IgG1 MEDI-493 (palivizumab) M252Y/T256Q (antibody)
# heavy: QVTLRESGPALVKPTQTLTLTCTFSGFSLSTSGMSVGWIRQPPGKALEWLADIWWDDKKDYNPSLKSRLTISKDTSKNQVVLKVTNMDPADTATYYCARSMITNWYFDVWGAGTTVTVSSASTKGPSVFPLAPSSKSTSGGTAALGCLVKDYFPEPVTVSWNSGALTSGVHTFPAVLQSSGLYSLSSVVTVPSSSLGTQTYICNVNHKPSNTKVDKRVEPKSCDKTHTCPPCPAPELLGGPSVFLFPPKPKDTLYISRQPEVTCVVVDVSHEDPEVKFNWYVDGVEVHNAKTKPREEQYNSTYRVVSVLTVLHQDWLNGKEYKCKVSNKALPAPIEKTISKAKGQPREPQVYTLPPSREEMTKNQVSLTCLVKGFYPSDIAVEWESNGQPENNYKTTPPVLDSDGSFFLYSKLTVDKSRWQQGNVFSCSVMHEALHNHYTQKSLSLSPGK
# light: B12 light
# B15: human IgG1 MEDI-493 (palivizumab) M252W (antibody)
# heavy: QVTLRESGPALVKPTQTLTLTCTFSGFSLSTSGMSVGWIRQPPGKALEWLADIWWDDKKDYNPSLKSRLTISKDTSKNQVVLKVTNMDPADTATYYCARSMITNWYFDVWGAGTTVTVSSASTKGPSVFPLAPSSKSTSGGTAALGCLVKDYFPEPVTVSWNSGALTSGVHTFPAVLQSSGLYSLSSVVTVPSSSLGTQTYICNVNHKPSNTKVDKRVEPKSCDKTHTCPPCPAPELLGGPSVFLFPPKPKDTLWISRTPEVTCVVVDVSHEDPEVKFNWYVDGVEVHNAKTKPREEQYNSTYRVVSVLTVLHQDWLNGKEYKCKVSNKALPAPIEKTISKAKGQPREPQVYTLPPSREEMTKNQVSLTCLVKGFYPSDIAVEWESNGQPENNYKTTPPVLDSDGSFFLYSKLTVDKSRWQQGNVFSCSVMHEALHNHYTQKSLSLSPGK
# light: B12 light
# How the values were obtained:
# [1] = biological target: Bac-F (respiratory syncytial virus); assay: SPR (BIAcore), mAb vs Bac-F (1:1)
# [2] = biological target: T3, recombinant C-terminally truncated RSV (A2 strain) F protein (RSV (A2 strain), UniProt P03420 26-524); assay: SPR (BIAcore), IgG over immobilised F
# T3 construct: extracellular domain; also called truncated F protein; extracellular domain of the F protein from RSV A2
# [3] = biological target: T1, RSV F glycoprotein (NUF4); assay: SPR (BIAcore), mAb vs NUF4 (2:1)
# [4] = biological target: T4, F protein of RSV (Long strain) (RSV (Long strain), UniProt P12568 26-574); assay: cell-based or functional assay
# Target sequence in this assay (P12568 26-574): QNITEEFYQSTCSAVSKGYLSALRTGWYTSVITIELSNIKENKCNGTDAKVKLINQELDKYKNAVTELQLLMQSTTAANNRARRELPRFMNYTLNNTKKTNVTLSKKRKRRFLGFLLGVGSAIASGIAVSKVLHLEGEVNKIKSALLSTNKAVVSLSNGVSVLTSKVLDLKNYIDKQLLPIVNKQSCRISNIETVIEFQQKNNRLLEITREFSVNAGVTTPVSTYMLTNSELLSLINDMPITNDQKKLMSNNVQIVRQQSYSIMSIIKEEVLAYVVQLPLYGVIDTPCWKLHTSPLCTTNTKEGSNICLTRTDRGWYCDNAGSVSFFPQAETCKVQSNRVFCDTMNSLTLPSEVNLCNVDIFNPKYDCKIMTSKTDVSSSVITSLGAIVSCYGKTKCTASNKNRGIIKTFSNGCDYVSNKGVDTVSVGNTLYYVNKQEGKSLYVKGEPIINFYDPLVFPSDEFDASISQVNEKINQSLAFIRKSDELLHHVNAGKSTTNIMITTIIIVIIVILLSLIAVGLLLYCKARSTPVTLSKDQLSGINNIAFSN
# [5] = biological target: T4, F protein of RSV (Long strain); assay: cell-based or functional assay; remark: listed apart in the source
# [6] = biological target: T1, RSV F glycoprotein (NUF4); assay: SPR (BIAcore), mAb vs NUF4 (1:1)
# [7] = biological target: T3, recombinant C-terminally truncated RSV …; assay: SPR (BIAcore), Fab over immobilised F
# [8] = biological target: T4, F protein of RSV (Long strain); assay: cell-based or functional assay; remark: listed apart in the source
# [9] = biological target: T3, recombinant C-terminally truncated RSV …; assay: SPR (BIAcore), Fab over immobilised F; remark: listed apart in the source
# [10] = biological target: T3, recombinant C-terminally truncated RSV …; assay: SPR (BIAcore), Fab over immobilised F; remark: listed apart in the source
# [11] = biological target: RSV F protein (purified) (respiratory syncytial virus); assay: SPR (BIAcore), F protein immobilised
# [12] = biological target: T2, murine FcRn; assay: SPR (BIAcore 3000), FcRn over immobilised IgG1, pH 6.0, Scatchard
# Procedure: IgG1 variants was monitored by surface plasmon resonance detection using a BIAcore 3000 instrument (Pharmacia Biosensor, Uppsala, Sweden). […] The protein concentrations ranged from 3-5 μg/ml in 10 mM sodium acetate, pH 5.0. The activation period was set for 7 minutes at a flow rate of 10 μl/min and the immobilization period was set to between 10 and 20 minutes at a flow rate of 10 μl/min. […] Human and murine FcRn were buffer exchanged against 50 mM PBS buffer pH 6.0 containing 0.05% Tween 20. Dilutions were made in the same buffer. All binding experiments were performed at 25° C. with concentrations ranging from 120 to 1 μg/ml at a flow rate of 5 to 10 μl/min; data were collected for 25 to 50 minutes and three 1-minute pulses of PBS buffer pH 7.2 were used to regenerate the surfaces. FcRn was also flowed over an uncoated cell and the sensorgrams from these blank runs subtracted from those obtained with IgG1-coupled chips. Runs were analyzed using the software BIAevaluation 3.1 (Pharmacia). Association constants (KAs) were determined from Scatchard analysis by measuring the concentration of free reactants and complex at equilibrium after correction for nonspecific binding.
# Chain of Bac-F (respiratory syncytial virus) (P03420 26-524): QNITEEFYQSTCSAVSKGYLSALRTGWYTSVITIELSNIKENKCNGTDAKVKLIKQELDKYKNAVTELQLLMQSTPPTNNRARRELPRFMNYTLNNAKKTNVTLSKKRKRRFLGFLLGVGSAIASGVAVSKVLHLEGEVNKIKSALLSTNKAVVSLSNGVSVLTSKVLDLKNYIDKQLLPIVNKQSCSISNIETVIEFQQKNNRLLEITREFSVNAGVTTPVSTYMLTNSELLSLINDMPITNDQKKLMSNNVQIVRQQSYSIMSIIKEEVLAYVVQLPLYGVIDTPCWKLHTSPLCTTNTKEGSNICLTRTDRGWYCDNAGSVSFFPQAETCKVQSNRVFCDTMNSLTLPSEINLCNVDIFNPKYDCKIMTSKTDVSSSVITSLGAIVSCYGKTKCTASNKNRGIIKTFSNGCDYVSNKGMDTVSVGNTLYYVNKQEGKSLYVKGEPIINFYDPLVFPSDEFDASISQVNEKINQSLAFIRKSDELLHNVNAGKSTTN
binder,measurement,setting,value
B1,Kd,[1],0.31 nM
same,fold in parentheses (palivizumab = 1),[1],13 fold
same,Kd,[2],0.314 nM
same,koff,[2],0.000128 s⁻¹
same,kon,[2],407000 M⁻¹ s⁻¹
same,Kd,[3],0.84 nM
same,fold in parentheses (palivizumab = 1),[3],371 fold
same,koff,[3],0.000236 s⁻¹
same,kon,[3],282000 M⁻¹ s⁻¹
same,Mean IC50 (Control),[4],0.0223 mg/L
same,Mean IC50 (Curve),[4],0.0231 mg/L
same,"Microneutralization IC50, IgG",[5],0.0231 µg/ml and 0.15 nM
same,Kd,[6],0.33 nM
same,fold in parentheses (palivizumab = 1),[6],26 fold
same,koff,[6],0.000178 s⁻¹
same,kon,[6],541000 M⁻¹ s⁻¹
B2,Kd,[7],0.47 nM
same,koff,[7],9.3e-05 s⁻¹
same,kon,[7],196000 M⁻¹ s⁻¹
same,"Microneutralization IC50, Fab",[8],4.85 µg/ml and 97 nM
same,fold improvement in affinity over 493L1FR Fab,[9],3 to 7 fold
B3,Kd,[7],≤ 0.038 nM
same,koff,[7],≤ 5e-06 s⁻¹
same,kon,[7],133000 M⁻¹ s⁻¹
same,"Microneutralization IC50, Fab",[8],0.249 µg/ml and 4.98 nM
same,fold higher affinity than palivizumab Fab,[9],> 117 fold
B4,Kd,[7],0.51 nM
same,koff,[7],8.4e-05 s⁻¹
same,kon,[7],165000 M⁻¹ s⁻¹
same,"Microneutralization IC50, Fab",[8],2.6 µg/ml and 52 nM
same,fold improvement in koff (against palivizumab Fab),[9],8 fold
B5,Kd,[7],≤ 0.045 nM
same,koff,[7],≤ 5e-06 s⁻¹
same,kon,[7],110000 M⁻¹ s⁻¹
same,fold higher affinity than palivizumab Fab,[9],> 117 fold
B6,Kd,[7],≤ 0.041 nM
same,koff,[7],≤ 5e-06 s⁻¹
same,kon,[7],122000 M⁻¹ s⁻¹
same,"Microneutralization IC50, Fab",[8],0.0754 µg/ml and 1.51 nM
same,fold higher affinity than palivizumab Fab,[9],> 117 fold
B7,Kd,[7],1.07 nM
same,koff,[7],0.000174 s⁻¹
same,kon,[7],163000 M⁻¹ s⁻¹
same,"Microneutralization IC50, Fab",[8],8.84 µg/ml and 177 nM
same,fold improvement in affinity over 493L1FR Fab,[9],3 to 7 fold
B8,Kd,[1],0.11 nM
same,fold in parentheses (palivizumab = 1),[1],35 fold
same,Kd,[2],0.112 nM
same,koff,[2],5.55e-05 s⁻¹
same,kon,[2],495000 M⁻¹ s⁻¹
same,Kd,[3],2.33 nM
same,fold in parentheses (palivizumab = 1),[3],134 fold
same,koff,[3],0.000636 s⁻¹
same,kon,[3],273000 M⁻¹ s⁻¹
same,Mean IC50 (Control),[4],0.0235 mg/L
same,Mean IC50 (Curve),[4],0.0242 mg/L
same,"Microneutralization IC50, IgG",[5],0.242 µg/ml and 0.16 nM
same,Kd,[6],0.24 nM
same,fold in parentheses (palivizumab = 1),[6],36 fold
same,koff,[6],0.000229 s⁻¹
same,kon,[6],943000 M⁻¹ s⁻¹
B9,Kd,[7],≤ 0.037 nM
same,koff,[7],≤ 5e-06 s⁻¹
same,kon,[7],134000 M⁻¹ s⁻¹
same,Kd,[10],≤ 0.037 nM
same,koff,[10],≤ 5e-06 s⁻¹
same,kon,[10],134000 M⁻¹ s⁻¹
same,"Microneutralization IC50, Fab",[5],0.0715 µg/ml and 1.43 nM
same,"Microneutralization IC50, Fab",[8],0.0715 µg/ml and 1.43 nM
same,fold higher affinity than palivizumab Fab,[9],> 117 fold
same,koff,[11],0.000245 s⁻¹ and 0.000446 s⁻¹ and 0.000268 s⁻¹
same,kon,[11],212000 M⁻¹ s⁻¹ and 156000 M⁻¹ s⁻¹ and 186000 M⁻¹ s⁻¹
B10,Kd,[7],≤ 0.044 nM
same,koff,[7],≤ 5e-06 s⁻¹
same,kon,[7],113000 M⁻¹ s⁻¹
same,"Microneutralization IC50, Fab",[8],0.0908 µg/ml and 1.82 nM
same,fold higher affinity than palivizumab Fab,[9],> 117 fold
B11,Kd,[10],0.154 nM
same,koff,[10],8.4e-05 s⁻¹
same,kon,[10],544000 M⁻¹ s⁻¹
same,"Microneutralization IC50, Fab",[5],0.106 µg/ml and 2.12 nM
same,fold improvement in koff (against palivizumab Fab),[9],8 fold
same,fold increase in kon over W100F,[9],3 fold
B12,Kd,[12],14 nM
same,ΔΔG,[12],7.53 kJ/mol
B13,Kd,[12],9 nM
same,ΔΔG,[12],8.37 kJ/mol
B14,Kd,[12],39 nM
same,ΔΔG,[12],4.6 kJ/mol
B15,Kd,[12],30 nM
same,ΔΔG,[12],5.44 kJ/mol
